For this test, the target named is target antigen. The test is described as follows: antigen binding ELISA, antigen coated on plate. (In general: ELISA stands for enzyme-linked immunosorbent assay.)

Where only a bound is given, the exact number is not on record here.

Regarding isotype control (antibody), the no binding up to (highest concentration tested) is more than 5 µM.
